Measured values reported in the nanobody polyreactivity screen of Harvey et al. (2022).

Test: yeast display, Sf9 membrane polyspecificity reagent, FACS + sequencing; frameworks hold sequencing errors
How it was run: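 A synthetic nanobody library was expressed on Saccharomyces cerevisiae BJ5465 by galactose induction for 36–48 hours. The library was stained for 1 hour at 4 °C with 10% biotinylated, detergent-solubilized Sf9 membrane reagent and enriched with streptavidin microbeads before FACS. Low and high (top ~1%) gates were set on anti-HA fluorescence for expression and streptavidin fluorescence for reagent binding, and each polyreactivity label reflects the gate of origin.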

Sequence | polyreactivity (PSR sort gate)
QVQLVESGGGLVQAGGRLRLSCAASGRIFAKNAMGWYRQAPGKERELVAAISGSGGSTYYADSVKGRFTISRDNAKNTVYLQMNSMKPDDTAVYYCAATRGPNYRNGYWGQGTQVTVSS | high polyreactivity
QVQLVESGGGLVQAGGRLRLSCAASGRIFDYNAMGWNRQAPWKERELVAAIRTSGGSTYYADSVKGRFTISRDNAKNTVYLPMISLKPEDNAVYYCAATSRRYRVRYDSWGQGTQVTVSS | high polyreactivity
QVQLVESGGGLVQAGGRLRLSCAASGRIFIRNAMGWYRQAPGKERELVAAIDSVGSTYYADSVKGRFTISRDNAKNTVYLQMNSLKPEDTAVYYCAARGWKYASPYWRYYYWGQGTQVTVSS | low polyreactivity
QVQLVESGGGLVQAGGRLRLSCAASGRIFKFYAMGWYRQAPGKERELVAAIRRGGTTNYADSVKGRFTISRDNAKNTFYLQMNSLKPEDTAVYFCAADGWYRVLTGLVSSWKYWGQGTQVTVSS | high polyreactivity
QVQLVESGGGLVQAGGRLRLSCAASGRIFLGYTMGSYRQAPWKERELVAAISKSGDSTYYADAVKGRFTFSSDNAKYTVFLQMNSLKPEDTAVYYCATRGYQSLRHQGTDDYWGQGTQVTVSS | high polyreactivity
QVQLVESGGGLVQAGGRLRLSCAASGRIFQYNAMGWYRQAPGKERELVAAITSSGGSTYYADSVKGRFTISRDNAKNTVYLQMNSLKPEDTAVYYCAAKRPQYYVQFGYWGHGTQVTVSS | high polyreactivity
QVQLVESGGGLVQAGGRLRLSCAASGRIFVRYVMGWYRQAPGQERALVAAISSSGGSTYYADSVKGRYTISRDTAKKTVYLQMNSLKPEDTAVYYCATDLIDKYFLPYDYWGQGTQVTVSS | low polyreactivity
QVQLVESGGGLVQAGGRLRLSCAASGRIFVYYMGWNIQAPGKERELVAAISFGGGSTYYADSVKGRFTISRDNAKNSVYLQMYSLKPEDTAVYYCNADGDDLDWNYYLVQYDYWGQGTQVTVSS | low polyreactivity
QVQLVESGGGLVQAGGRLRLSCAASGRIFYFYDMGWYRQAPGTERELGAAISRGGSTNYADSVKGRFTISRDNAKNTVYLQMNRLKPQDTAVYYCNAGLYDLRDIAGYSDYDYWGQGTQVTVSS | low polyreactivity
QVQLVESGGGLVQAGGRLRLSCAASGRIFYLNAMGWYRQAPGKETELVAAINTSGDATYYADSEKGRFTISRDIAKNTVYLQMNSLKPEDTAVYYCAAYVIGPDQFIYDYWGQGPQVTVSS | low polyreactivity
QVQLVESGGGLVQAGGRLRLSCAASGRIFYNYAMGWYRQAPGKERELVAAISVSGGSTYYADSVKGRFTISRDNAKNTVYLQMISMKPEDTAVYYCATYSSRQRKSSYYYGGQGTQVTVSS | high polyreactivity
QVQLVESGGGLVQAGGRLRLSCAASGRSFYSYTMGWYRQAPGKERELVAAIRKSGGRTYYADSVKGRFTISRDNAKNTVYLQMNSLKPEDTAVYYCATTNYELSYYYWGQGTQVTVSS | high polyreactivity
QVQLVESGGGLVQAGGRLRLSCAASGRTFANYARGGYRQAPGTERELVAAITSGGRTYYADSVKGRFTISRDNAKNTVYLQMNSLKPEDTPVYYCAAEITYLYDYWGQGTQVTVSS | high polyreactivity
QVQLVESGGGLVQAGGRLRLSCAASGRTFDRMLMGWYRQAPGKERELVAAITSGGRTNYADSVKGRFTISRDNAKNTVYLQMNSLKPEDTAVYYCAKRASALLRHSYDYWGQGTQVTVSS | low polyreactivity
QVQLVESGGGLVQAGGRLRLSCAASGRTFGWYAMGWYRQAPGKERELVASITQRGGRTYYADSVKGRFTISRDNAKNTVYLQMNSLKPEDTAVYYCAAKTSPGMYYWGQGTQVTVSS | high polyreactivity
QVQLVESGGGLVQAGGRLRLSCAASGRTFPWNVMGWYRQAPGKERELVAAISWSSGRTYYADSVKGRFTISRDNAKNTVYLQMNSLKPDDTAVYYCAKRYRPYRGNSGNDYWGQGTQVTVSS | high polyreactivity
QVQLVESGGGLVQAGGRLRLSCAASGRTFRGYAMGWYRQAPGKERELVAAITSGGSTNYADSVKGRFTISRDNAKYTVYLQMTSLKPEDTAVYYCAAEPYSWDTWVDYDYWGQGTQVTVSS | low polyreactivity
QVQLVESGGGLVQAGGRLRLSCAASGRTFRPYAMGWYRQAPGKERELVAAITSGGSTYYADSVKGRFTISRDNAKNTVYFQMNSLKPEDTAVYYCNAKYYYQPPYDYWGQGTQVTVSS | low polyreactivity
QVQLVESGGGLVQAGGRLRLSCAASGRTFTVYAMGWYRQAPGKEREFVAAITERGGSTYYADSVKGRFTISRDNAKNTVYLKMNSLKPEDTSVYYFAAVFYWRPGWYVRFDYWGQGTQVTVSS | low polyreactivity
QVQLVESGGGLVQAGGRLRLSCAASGRTFVQYAIAWYRQAPGKEREFVAAISSRVGSTYYADSVKGRFTISRDNAKNTVYLQMNSLKPEDTAVYYCNRDLVPRFDYWGQGTQVTVSS | low polyreactivity
QVQLVESGGGLVQAGGRLRLSCAASGSICEPYVMGWYIQAPGKERELVAAIRQTGGSTYYADSVKGRFTISRDNAKNTVYLQMNSLKPEDTAVYYCNAEQKPSGLYDYRGVEGEMGYWGQGTQVTVSS | low polyreactivity
QVQLVESGGGLVQAGGRLRLSCAASGSIFEGYVMGWYRQAPGKERELVAAITTGGGSTYYADSVKGRFTISRDNAKNTVYLQMNSLKPEDTAVYYCAKDGGRWGQGTQVTVSS | low polyreactivity

Sequence | polyreactivity (PSR sort gate)
QVQLVESGGGLVQAGGRLRLSCAASGSIFGEYAMGWYRQAPGKERELVADITTGGNTNYADSVKGRFTISRDNAKNTVYLQMNSLKPEDTAVYYCNAYGNTYGYWWFGYWGQGTQVTVSS | low polyreactivity
QVQLVESGGGLVQAGGRLRLSCAASGSIFGFYAMGWYRPAPGKERELVAGISVSDGSTYYADSVKGRFTISRDNAKNTVYLQMNSLKPEDTAVYYCAASPRGSYGYYYWGQGTQVTVSS | low polyreactivity
QVQLVESGGGLVQAGGRLRLSCAASGSIFITYAMGWYRQAPGKEMELVAAIRDSGDRTYYADSVKGRFTISRDNAKNTVYLQMNSLKPEDTAVYYCNARWQEPLKYDYWGQGTQVTVSS | low polyreactivity
QVQLVESGGGLVQAGGRLRLSCAASGSIFQYNAMGWSRQAPGKERELVAAISRSGGSTYYADSVKGRFTISRDNAKNTVYLQMNSLKPEDTAVYYCHAVLGYYSPYDYWGQGTQVTVSS | low polyreactivity
QVQLVESGGGLVQAGGRLRLSCAASGSIFRIYTMGWYRQEPGKERELVAAINSGGSTNYADSVKGRFTISRDNAKNTVYLQMNSLKPEDTAVYYCAATWWQYDQGLHRYDYWGQGTQVTVSS | high polyreactivity
QVQLVESGGGLVQAGGRLRLSCAASGSIFRSNAMGWYRLAPGKEREFVAASTRSGGSTYYADTVKGRFTISRDNAKNTVYLQMNSLKPAATAVYYCAADWKSYAYYYWGQGTQVTVSS | high polyreactivity
QVQLVESGGGLVQAGGRLRLSCAASGSIFSSNAMGWYRQAPGKERELVASIRGSGVSTYYADSVKGRFTISRDNAKNTVYLQMNSMKPEDTAVYYCAARYGRSYFGYYFWGQGTQVTVSS | high polyreactivity
QVQLVESGGGLVQAGGRLRLSCAASGSISASYAMGWSRQAPGKERELVAAITSGGSTYYADSVKGRFTFSRDNAKNTVYFQMNSLKPEETAVYYCAKRPKRTYYPHIGYDYWGQGTQVTVSS | low polyreactivity
QVQLVESGGGLVQAGGRLRLSCAASGSISYFNDMGWYRQAPGKERELVAAIRDSGGITYADSVKGRFTISRDNAKNTVYLQMNSLKPEDTAVYYCATYGNEIYDYWGQGTQVTVSS | low polyreactivity
QVQLVESGGGLVQAGGRLRLSCAASGSIVGLYVMGWYRQAPGKERELVATITSGGSTYYADSVKGRFTISRDNAKNTDYLQMNSLKPEDTAVYYSAADPQDAADLPDLFYDYDYWGQGTQVTVSS | low polyreactivity
QVQLVESGGGLVQAGGRLRLSCAASGSTFAIYGMGWYRQAPGKERELVAGITRGGSTNYADSVKGRFTISRDNAKNTVYLQMNSLKPEDTAVYYCNSPFGVRRFKTKGRSHYEYWGQGTQVTVSS | high polyreactivity
QVQLVESGGGLVQAGGRLRLSCAASGSTFEEYAMGWYRQAPGKERELVAGITWGGGSTYYADSVKGRFTISRDNAKNTVYLQMNSQKPEDTAVYYCAAEPGWYADTPASDSKYDYWGQGTQGTVSS | low polyreactivity
QVQLVESGGGLVQAGGRLRLSCAASGSTFGYYARGWYRQAPGKERELVAAISTSSGSKYFADSVKGRFTISRDNAKNTVYLQMNSLKPEDTAVYYCNARKASYRSIYYYWGQGTQVTVSS | high polyreactivity
QVQLVESGGGLVQAGGRLRLSCAASGSTFIDYAMGWYRPAPGKERELVAAITNGGNTKYADSVKGRFTISRDNAKNTVYLQMKSLKPEDTSVDYCSREPSIFTSSYDYWGQGTQVTVSS | low polyreactivity
QVQLVESGGGLVQAGGRLRLSCAASGSTFIYYAMGWYRQAPGKERELVAAITGRGTRTYYADSVKGRFTISRDNAKNTVYLQMNSLKPEDTAVYYCNTLQTYLYDYWGQGTQVTVSS | high polyreactivity
QVQLVESGGGLVQAGGRLRLSCAASGSTFQRYAMGWYRQAPGKDRELVAAISSTGGSTFYADSVKGRFTISRDTAKNTVYLHMNSLKPEDTAVYYCNKYRATNSARDYWGQGTQVTVSS | high polyreactivity
QVQLVESGGGLVQAGGRLRLSCAASGSTFSDYAMGWYRQAPGKERELVADISRSGASTYYADSVKGRFTISRYNAKNTVYLQMNSLKPEDTPVYSSNKAYSGVRYDSWGPGTQVTVSS | low polyreactivity
QVQLVESGGGLVQAGGRLRLSCAASGSTFVWYAMVWYRQAPGKEREFVATISWSDGSTYYADSVKGRFTISRDNAKNTVYLQLNSLIPEDTAVYYCASDVDRFFTYKYDYWGQGTQVTVSS | low polyreactivity
QVQLVESGGGLVQAGGRLRLSCAASGSTIPRNAMGWYRHAPGKERELVAAITSGGSTNYADSVKGRFTISRDNAKNTVYLQMNSLKPEDTAVYYCAADEQVNTQYVVWGDYWGQGTQVTVSS | low polyreactivity
QVQLVESGGGLVQAGGRLRLSCAASGSTLIRNVMGWYRQAPGKERELVAAINTRGTTTYYADSVKGRFTISRDKAKNTVYLQMNSLKPEDTAVSYCAARTPHYSYGYWGQGTHVTVSS | high polyreactivity
QVQLVESGGGLVQAGGRLRLSCAASGSTLSGNAMGGYRQAPGKERELVAAITSSGGRTYYADSVKGRFTISRDNAKNTVYLQMNSLKPEDTAVYYCAKDRYGWGQGTQVTVSS | high polyreactivity
